Patent US7799901B2, “Modulators of the function of FAS receptors and other proteins” (Yeda Research and Development Co. Ltd., priority 1995, dated 2010)
“Also recorded” adds a separate entry of the source.

Assays:
yeasts = test: Cytotoxic effect on transfected yeasts (yield of colonies); format: cell-based, yeast; settings: decrease in the yield of colonies; activation domain vector
From the text: To find out if MACHα1 can bind to MORT1, as does MACHβ1, the interaction of the proteins within transfected yeasts was first examined. […] This effect was manifested in a marked decrease in the yield of colonies in yeasts that expressed the protein in the activation domain (AD) vector (whose expression level is higher than that of the DNA binding domain (DBD) vector). On the other hand, […] in which the catalytic cysteine residue, Cys360, was replaced with Ser (MACHα1 (C360S)) was not cytotoxic to either mammalian cells (see below), or yeast. Like MACHβ1, MACHα1 (C360S) bound in tranfected yeast to MORT-1 and also to itself. It also bound to MACHβ1. […] The intensity of the lacZ-product color varied, however, among the yeast colonies; in yeasts tranfected with MACHα1 in both the AD and the DBD vectors no color product was observed, probably because of the cytotoxic effect of the wild-type MACHα1.

MACHα1 (C360S) = molecular target: T1, MACHα1 (C360S) (Homo sapiens, UniProt Q14790, C360S); test: Two-hybrid β-galactosidase filter assay (FIG. 5), binding to MACHα1 (C360S); settings: two hybrid test
T1 construct: expressed in transfected cells; host or cells: SFY526 yeast
Procedure: In FIG. 5, there is shown the results of the interaction of MORT-1 and MACH within transfected yeast cells. Briefly, MORT-1 and MACHβ1 and their deletion constructs, as well as MACHα1, a MACHα1 mutant in which the catalytic cysteine Cys360 is replaced by Ser (MACHα1 (C360S)) and the intracellular domain of human FAS-R (Fas-IC), were expressed within transfected SFY526 yeast in Gal4 DNA binding domain and activation domain constructs (pGBT9 and pGAD-GH). Their interaction was assessed by a β-galactosidase expression filter assay as described in Boldin et al (1995b). The results are presented in terms of the time required for the development of strong color. […] None of the inserts examined interacted with a number of tested negative controls, including the intracellular domains of human p55 TNF receptor, p75 TNF receptor and CD40, and lamin, cyclin D and ‘empty’ Gal4 vectors. MACHβ1 was cloned by two hybrid screening of a Gal4 AD-tagged human B cell library (Durfee et al, 1993) for proteins that bind to MORT-1, using the HF7c Yeast reporter strain. Except where otherwise indicated, all experimental procedures for the findings presented are as described above (see also Boldin et al, 1995). […] MACHβ1 also self-associated in the transfected yeast. […] Expression of MACHβ1 molecules in mammalian cells yielded a 34 kDa protein that bound to MORT-1 molecules co-expressed with it. […]

HeLa cells = test: Cell death on overexpression of MACH isoforms in HeLa cells; format: cell-based; settings: FIG. 19
Procedure: In brief, 293-EBNA cells, MCF7 human breast carcinoma cells and HeLa HtTA-1 cells were grown in Dulbecco's modified Eagle's minimal essential medium supplemented with 10% fetal calf serum, nonessential amino acids, 100 U/ml penicillin and 100 μg/ml streptomycin. Cell tissue culture dishes (5×10^5 293-EBNA cells, 3×10^5 s MCF7 cells or 3×10^5 HeLa cells in 6-cm dishes) were transiently transfected, using the calcium phosphate precipitation method, with the cDNAs of the indicated proteins together with the β-galactosidase expression vector. In the experiments presented in FIGS. 14A-D and 15, each dish was transfected with 3.5 μg of the indicated MACH construct and 1.5 μg of pSV-β-gal. In the experiments presented in FIGS. 16A-D and 17-19, each dish was transfected with 2.5 μg of the indicated MACH or MORT1 construct (or, as control, empty vector) and 1.5 μg of pSV-β-gal. The cells were rinsed 6 to 10 h after transfection. The 293-EBNA and MCF7 cells were incubated for a further 18 h without additional treatment. The HeLa cells were incubated for 26 h after transfection and-then for 5 h in the presence of either anti-Fas.APO1 antibody (CH11, 0.5 μg/ml) or TNF (100 ng/ml), together with cycloheximide (10 μg/ml). The extent of cell death at the end of the incubation periods was assessed by determination of β-galactosidase expression, as described by Kumar et al, 1994.
To examine the involvement of the CED3/ICE homology region within the MACHα isoforms in their apoptopic effects, cells were transfected with the expression vector for the MACHβ1 isoform, which lacks the CED3/ICE homology region, as well as with expression vectors for MACHα3, which lacks an N-terminal part of the region, and with expression vectors for MACHα1 (C360S) and for a C-terminally truncated mutant of MACHα1 (MACHα1 (1-415)), which lacks one of the residues believed to be critical for CED3/ICE protease function (corresponding to Ser347 in ICE). […]

MORT1 = molecular target: T2, MORT1 (Homo sapiens, UniProt Q13158); test: Co-immunoprecipitation with MORT-1 from 293-EBNA cell lysates; format: binding; design: expressed in transfected cells; host or cells: 293-EBNA; HeLa (detail in the same paragraph); settings: lysates of human embryonic kidney 293-EBNA cells
T2 sequence (Q13158 1-208): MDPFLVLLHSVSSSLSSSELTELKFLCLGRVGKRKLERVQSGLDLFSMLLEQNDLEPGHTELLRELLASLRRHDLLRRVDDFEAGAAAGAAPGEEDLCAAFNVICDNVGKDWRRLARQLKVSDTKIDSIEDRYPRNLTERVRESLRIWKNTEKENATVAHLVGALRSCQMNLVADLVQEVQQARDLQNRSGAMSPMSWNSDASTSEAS
Procedure: Testing further if MACHα1 can bind to MORT1 also within mammalian cells, MACHα1 or MACHβ1, fused with the FLAG octapeptide was expressed, together with HA epitope-tagged MORT1 molecules. ^35[S] metabolically labeled MACHα1 and MACHβ1 fused at their N-termini to the FLAG octapeptide (FLAG-MACHα1 and β1), and MORT1 fused at its N terminus to the HA epitope (Field et al, 1988) were expressed in HeLa cells. Immunoprecipitation of the proteins from lysates of the cells was performed using mouse monoclonal antibodies against the FLAG octapeptide (M2; Eastman Kodak), HA epitope (12CA5, Field et al, 1988) or the p75 TNF receptor (#9, Bigda et al, 1994) as a control. The proteins were analyzed by SDS-polyacrylamide gel electrophoresis (12% acrylamide), followed by autoradiography. […] The effectivity of interaction of MACHα1 with MORT1 appeared to be lower than that of MACHβ1.

For “MACHα1: MACH isoform, cDNA SEQ ID NO: 14, amino acid SEQ ID NO: 7; contains CED3/ICE homology region”, the “cytotoxic effect on yeasts” value (yeasts) was “significant cytotoxic effect”.

B1: MACHα1 (C360S): MACHα1 mutant in which the catalytic cysteine Cys360 is replaced by Ser (protein)
chain: MDFSRNLYDIGEQLDSEDLASLKFLSLDYIPQRKQEPIKDALMLFQRLQEKRMLEESNLSFLKELLFRINRLDLLITYLNTRKEEMERELQTPGRAQISAYRVMLYQISEEVSRSELRSFKFLLQEEISKCKLDDDMNLLDIFIEMEKRVILGEGKLDILKRVCAQINKSLLKIINDYEEFSKERSSSLEGSPDEFSNGEELCGVMTISDSPREQDSESQTLDKVYQMKSKPRGYCLIINNHNFAKAREKVPKLHSIRDRNGTHLDAGALTTTFEELHFEIKPHDDCTVEQIYEILKIYQLMDHSNMDCFICCILSHGDKGIIYGTDGQEAPIYELTSQFTGLKCPSLAGKPKVFFIQASQGDNYQKGIPVETDSEEQPYLEMDLSSPQTRYIPDEADFLLGMATVNNCVSYRNPAEGTWYIQSLCQSLRERCPRGDDILTILTEVNYEVSNKDDKKNMGKQMPQPTFTLRKKLVFPSD
B1 was tested, and the “binding to MACHα1 (C360S) in transfected yeast” value (MACHα1 (C360S)) was “bound”, the “cytotoxic effect on yeasts” value (yeasts) was “not cytotoxic” and the “cytotoxicity in transfected HeLa cells” value (HeLa cells) was “somewhat cytotoxic”. For the same molecule, the “coimmunoprecipitation with MORT-1” value (MORT1) was “coimmunoprecipitated”.

B2: MACHβ1: MACH isoform, cDNA SEQ ID NO: 4, amino acid SEQ ID NO: 5; lacks the CED3/ICE homology region (protein)
chain: MDFSRNLYDIGEQLDSEDLASLKFLSLDYIPQRKQEPIKDALMLFQRLQEKRMLEESNLSFLKELLFRINRLDLLITYLNTRKEEMERELQTPGRAQISAYRVMLYQISEEVSRSELRSFKFLLQEEISKCKLDDDMNLLDIFIEMEKRVILGEGKLDILKRVCAQINKSLLKIINDYEEFSKERSSSLEGSPDEFSNDFGQSLPNEKQTSGILSDHQQSQFCKSTGESAQTSQH
For B2, the “cytotoxicity in transfected HeLa cells” value (HeLa cells) was “more pronounced; also recorded: rather significant cytoxic effect” and the “coimmunoprecipitation with MORT-1” value (MORT1) was “coimmunoprecipitated”.
